Earlier results on one substance are cited in publication PMC11313252.

For the series, the target named is EGFR (Homo sapiens) (UniProt P00533).

For the substance EGF (from UniProt P01133), the Kd (as a rule, the constant that tells how readily two partners part at equilibrium) is 2 nM.
